Data from the nanobody polyreactivity screen of Harvey et al. (2022).

Assay: yeast display, Sf9 membrane polyspecificity reagent, FACS + sequencing; frameworks hold sequencing errors
How it was run: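 A synthetic nanobody library was expressed on Saccharomyces cerevisiae BJ5465 by galactose induction for 36–48 hours. The library was stained for 1 hour at 4 °C with 10% biotinylated, detergent-solubilized Sf9 membrane reagent and enriched with streptavidin microbeads before FACS. Low and high (top ~1%) gates were set on anti-HA fluorescence for expression and streptavidin fluorescence for reagent binding, and each polyreactivity label reflects the gate of origin.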

Row | Sequence | polyreactivity (PSR sort gate)
1 | QVQLVESGGGLVQAGGSLRLSCAASGSTFHRNAMGWYRQAPGKERELVAAITSGGSTNYADSVKGRFTISRDNAKNTVYLQMNSLKPEDTAVYYCAKDYRHYNRGWYDYWGQGTQVTVSS | low polyreactivity
2 | QVQLVESGGGLVQAGGSLRLSCAASGSTFHRNTMGWYRQAPGKERELVAGISLRGVRTYYADSVKGRFTISRDNAKNTVYLQMNSLKPEDTAVYYCAAGGPYTRNFKLGYWGQGTQVTVSS | high polyreactivity
3 | QVQLVESGGGLVQAGGSLRLSCAASGSTFHSNAMGGYRQAPGKERELVAAISSGGSTNYADSVKGRFTISRDNAKNTVYLQMNSLKPEDTAVYYCAAVWRYLGYTAMDYWGQGTQVTVSS | low polyreactivity
4 | QVQLVESGGGLVQAGGSLRLSCAASGSTFHSYVMGWYRQAHGKERELVAAITSRGGSTNYADSVKGRFTISRDNAKNTVYLQMNSLKPEDTAVYYCAADGYWGWSYFRYDYWGQGTLVTVSS | low polyreactivity
5 | QVQLVESGGGLVQAGGSLRLSCAASGSTFHTYDMGWYRQAPGKERELVAAITSGGDTNYADSVKGRFTISRDNAKNTVYLQMNSLKPEDTAVYYCNTDRWGTGKLRYNYWGQGTQVTVSS | low polyreactivity
6 | QVQLVESGGGLVQAGGSLRLSCAASGSTFHTYGLGWYRQAPGKERELVAAIDLSDGSTYYADSVKGRFTISRDNAKNTVYLQMNSLKPADTAVYYCKADYFPKPYRPDDYWGQGTQVTVSS | low polyreactivity
7 | QVQLVESGGGLVQAGGSLRLSCAASGSTFHWYDMGWYRQAPGKERELVAGINSSGDGTYYADSVKGRFTISRDNAKYTVYLQMNSLKPEDTAVYYCAAPWWYYGVPYQTNKYDYWGQGTQVTVSS | low polyreactivity
8 | QVQLVESGGGLVQAGGSLRLSCAASGSTFHYYAMGWYRQAPGKERELVAAISQSGSGTYYADSVKGRFTISRDNAKNTVYLQMNSLKPEDTAVYYCAKESTKIYRVVEMDYWGQGTQVTVSS | low polyreactivity
9 | QVQLVESGGGLVQAGGSLRLSCAASGSTFHYYVMRWYRQAPGKERELVAAIRRSGGTTYYADSVKGRFTISRDNAKNTVYLQMNSLKPEDTAVYYCAAPGWYGGYPSYYYWGQGTQVSVSS | low polyreactivity
10 | QVQLVESGGGLVQAGGSLRLSCAASGSTFIAYTMGWYRQAPGKERELVAAITWSGGGTYYADSVKGRFTISRDNAKNTVYLQMNSLKPEDTAVYYCAKRGWRGYYWGQGTQVTVSS | high polyreactivity
11 | QVQLVESGGGLVQAGGSLRLSCAASGSTFIFYVMVWYRQAPGKERELVASITGNGTSTYYADSVKGRFTISRDNAKNTVYLQMNSLKPEDSAVYYCNAVFSPSRYDYWGQGTQVTVSS | low polyreactivity
12 | QVQLVESGGGLVQAGGSLRLSCAASGSTFIGNAMGRYRQAPGKERELVAAITRSGGSTFYADSVKGRFTISRDYAKNTVYLQMNSLKPEDTAVYYCAARTRRGLARYDYWGQGTQVTVSS | high polyreactivity
13 | QVQLVESGGGLVQAGGSLRLSCAASGSTFIGNAMGWYRQAPGKERELVAAITRSGGSTFYADSVKGRFTISRDNAKNTVYLQMNSLKPEDTAVYYCSAKGNPYRVPGSSYPKVNYWGQGTQVTVSS | high polyreactivity
14 | QVQLVESGGGLVQAGGSLRLSCAASGSTFIGYAMGWYRQAPGKDRELVAAITRSGGRTYYADSVKGRFTISRDNAKNTVYLQMNSLKPEVSAVYYCAARVKGQWNTYDYWGQGTQVTVSS | high polyreactivity
15 | QVQLVESGGGLVQAGGSLRLSCAASGSTFIHNAMGWYRQAPRKERELVAAITSGGSTYYADSVKGRFTISRDNAKNTVYLQMNSLKPEDTAVYYCNRGSWRYSTMEYWGQGTQVTVSS | high polyreactivity
16 | QVQLVESGGGLVQAGGSLRLSCAASGSTFIKNAMGWYRQAPGKERELVAAIPWGGGSTYYADSVKGRFTISRDNAKNTVYLQMNSLKPEDTAVYYCAAGNDIWRYYGYDYWGQGTQVTVSS | low polyreactivity

Row | Sequence | polyreactivity (PSR sort gate)
17 | QVQLVESGGGLVQAGGSLRLSCAASGSTFILKAMGWYRQAPGKERELVATISSSDTSPYYADSVKGRFTISRDTAKNTVYLQMNSLKPEDTAVYYCNADYYTTSYLQRVYHYGVDYDYWGQGTQVTVSS | low polyreactivity
18 | QVQLVESGGGLVQAGGSLRLSCAASGSTFILNAMGWYRQAPGKERELVATISSSDTSTYYADSVKGRFTISRDNAKNTVYLLMNSLKPDDTAVYFCNADYYTTSYLQRVYHYGVEYDYWGQGTQVTLSS | low polyreactivity
19 | QVQLVESGGGLVQAGGSLRLSCAASGSTFIPNAMGWYRQAPGKERELVAAITYRGGRTYYADSVKGRFTISRDNAKYTVYLQLNSLKPEDTAVYYCAADFWYNQVRFYYWGQGTQVTVSS | high polyreactivity
20 | QVQLVESGGGLVQAGGSLRLSCAASGSTFIPYAMGWYRQAPGKERELVARITWSDTSTYYADSVKGRFTISRDNAKNTVYLHMNSVKPEDTAVYYCAAKEFSLARGARPRYYYWGQGTQVTVSS | high polyreactivity
21 | QVQLVESGGGLVQAGGSLRLSCAASGSTFIRYAMGWYRQAPGKERELVAAITWRGGSTYYADSVKGRFTISRDNAKNTVYLQMNSLKPEDTAVYYCAARDRDTRNYYWGQGTQVTVSS | high polyreactivity
22 | QVQLVESGGGLVQAGGSLRLSCAASGSTFISNTMGWYRQAPGKERELVAAITRTGGRTYYADSVKGRFTISRDNAKNTVYLQMNSLKPEDTAVYYCARYGGYWSLKYDYWGQGTQVTVSS | high polyreactivity
23 | QVQLVESGGGLVQAGGSLRLSCAASGSTFISYAMGWYRQAPGKERELVAAISSGGGRTSYADSVKGRFTISRDNAKNTVYLQMNSLKPEDTAVYYCNTKKLPYAEGYWGQGTQVTVSS | low polyreactivity
24 | QVQLVESGGGLVQAGGSLRLSCAASGSTFISYAMGWYRQAPGKEREMVAAISWDGGSTYYADSVKGRFTISRDNAKNTVYLQMNSLKPEDTAVYYCNAEYDGAAGRYEYWGPGTQVTVSS | low polyreactivity
25 | QVQLVESGGGLVQAGGSLRLSCAASGSTFIWNGMGWYRQAPGKERELVAAITSSSTNYADSVKGRFTISRDNAKNTVYLQMNSLKPEDTAVYYCAAEIYPLGSLRLGPGEYDHWGQGTQVTVSS | low polyreactivity
26 | QVQLVESGGGLVQAGGSLRLSCAASGSTFIYNALGWYRQAPGKERELVAAISSGGSTYYADSVKGRFTISRDNAKNSVYLQMNSLKPEDTAVYYCAAKGFPRSGYPYQAQHMYYWGQGTQVTVSS | low polyreactivity
27 | QVQLVESGGGLVQAGGSLRLSCAASGSTFIYYAMGWNRQAPGKERELVDSISRSGGSTYYADSVKGRFTISRDNAKNTVYLQMNSLKPEDTAVYYCARAYRSSFNYWGQGTQVTVSS | high polyreactivity
28 | QVQLVESGGGLVQAGGSLRLSCAASGSTFIYYAMGWYRQAPGKEREFVAAISYRGGSTYYADSVKGRFTISRDNAKNTVYLQMNSLKPEDTAVYYCAASYRKWNDYWGQGTQVNVSS | high polyreactivity
29 | QVQLVESGGGLVQAGGSLRLSCAASGSTFIYYAMGWYRQAPGKERELVAAISGSGASTYYADSVKGRFTISRDNAKNTVYLQMNSLKPEDTAVYYCHFYRWRGYDYWGQGTQVTVSS | high polyreactivity
30 | QVQLVESGGGLVQAGGSLRLSCAASGSTFIYYTMGWYRQAPGKERELVAASSWSGGNTYYADSVKGRFTISRDNAKNTVYLQMNSLKPEDTAVYYCAATRFSQYDWGQGTQVTVSS | high polyreactivity
31 | QVQLVESGGGLVQAGGSLRLSCAASGSTFIYYVKGWYRQAPGNERELVAAISGRTGSTYYADSVKGRFTISRDNAKNTVYLQMNSLTPEDTAVYYCAKRGFLYWDHVSGFYRYDYWGQGTQVTVSS | low polyreactivity
